Assay results reported in patent US20180305451A1 (COMPUGEN, published 2018).

T1: mouse HIDE1 (mouse, UniProt Q75VT8 22-222)
T1 construct: Endogenous on EL4, YAC-1, J774A.1/J774A.2 cells; also called AB124611; mHIDE1
T1 sequence: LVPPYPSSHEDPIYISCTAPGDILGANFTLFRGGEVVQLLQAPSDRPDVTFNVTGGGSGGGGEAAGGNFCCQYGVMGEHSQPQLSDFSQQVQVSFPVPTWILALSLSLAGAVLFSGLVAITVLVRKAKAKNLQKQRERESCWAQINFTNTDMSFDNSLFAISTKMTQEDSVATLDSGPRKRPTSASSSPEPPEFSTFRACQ

T2: human HIDE1 (human, UniProt A8MVS5 20-230)
T2 construct: Endogenous on U937, HL-60, THP-1 cells, blood monocytes, AML blasts and dendritic cells; also called C19orf38; hHIDE1
T2 sequence: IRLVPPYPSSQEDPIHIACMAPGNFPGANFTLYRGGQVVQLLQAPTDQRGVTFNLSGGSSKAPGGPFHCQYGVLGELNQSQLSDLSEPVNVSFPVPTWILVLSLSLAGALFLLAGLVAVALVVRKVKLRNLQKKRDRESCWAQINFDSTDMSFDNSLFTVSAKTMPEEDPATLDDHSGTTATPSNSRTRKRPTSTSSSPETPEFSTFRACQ

B1: CPA.12.002 human IgG4 (antibody, V domains shown)
VH: EVQLVESGGGLVQPGRSLRLSCAASGFTFSSYAMHWVRQVPGKGLEWVAVISYDGSNKYYADSVKGRFTISRDNSKNTLYLQMNSLRAEDTAVYYCAKPMYSSGWYPLGYWGQGTLVTVSS
VL: DIVMTQTPLSLPVTPGQPASISCRSSQSPLDTDGNTYLDWYLQRPGQSPQLLIYTLSNRASGVPDRFSGSGSGTDFTLKISRVEAEDVGIYYCMQRIQYPLTFGPGTRLEIKR
notes: also called CPA.12.002-H4
B2: CPA.12.001 human IgG4 (antibody, V domains shown)
VH: QVQLVESGGGLVQPGRSLRLSCAASGFTFSSYGMHWVRQAPGKGLEWVAVISYDGSNKYYADSVKGRFTISRDNSKNTLYLQMNSLRAEDTAVYYCASEGVDFWSGLDYWGQGTLVTVSS
VL: QSALTQPRSASGSAGQSVTISCTGTSSDVGGHNYVSWYQQFPGKAPKLLIYEVSHRPSGVPDRFSGSKSGNTASLTVSGLQAEDEADYYCSSYADLNNLMFGGGTKLTVLG
notes: also called CPA.12.001-H4
B3: CPA.12.003 human IgG4 (antibody, V domains shown)
VH: QVQLQESGPGLVTPSETLSLTCTVSGGSISSVSYYWGWVRQPPGKGLEWIGSIYYSGTTAHNPSLKSRVTMAVDTSKNQFSLSLSSVTAADTAVYFCARGWRYYEDYYFDHWGQGTLVTVSS
VL: DIQMTQSPSTLSASVGDRVTITCRASQSINRWLAWYQQKPGKAPKILIYTASSLESGVPSRFSGSGSGTEFTLTISSLQPDDFATYYCQQYNSYPITFGQGTRLEIKR
notes: also called CPA.12.003-H4
B4: CPA.12.004 human IgG4 (antibody, V domains shown)
VH: EVQLVETGGGLIQPGRSLRLSCVASDFRFSNHAMHWVRQAPGKELEWVAVISSDGSNRQYAYSVKGRFTISRDNSKNTLYLEMNILGPEDTAVYFCVRSHLGPEWYYGMDVWGQGTTVTVSS
VL: DIQMTQSPSSLSTSVGDSVTITCRSSQSISTFLSWFQHKPGKAPNLLIYDASSLQSGVPSRFSGSGSGTDFTLTISSLQPEDFATYYCQQSDYLPFTFGPGTKVEIKR
notes: also called CPA.12.004-H4
B5: CPA.12.006 Fab (A07 S398-01.D09) (Fab, V domains shown)
VH: EVQLVESGGGVVQPGRSLRLSCAASGFTFSSFAMHWVRQAPGKGPEWLGIILYEGGHVVYADSVRGRLTISRDNSKNTLYLQMDSLRDEDTAVYYCAKGFYHAFDVWGQGTMVTVSS
VL: QAVLTQPASLSASPGASASLTCTLRSGINVGTYRIYWYQQKPGSPPQYLLRYKSDSDKQQGSGVPSRFSGSKDASANAGILLISGLQSEDEADYYCMIWHSSAWVFGGGTQLTVLG
notes: XOMA031 library Fab in periplasmic extract
B6: CPA.12.014 Fab (B12 S404-01.E06) (Fab, V domains shown)
VH: QVTLKESGPALVTPTQNLTLTCTVSGGSISSSSYYWGWIRQPPGKGLEWIGSIYYSGSTYYNPSLKSRVTISVDTSKNQFSLKLSSVTAADTAVYYCARRRNSSGWFYFDYWGQGTLVTVSS
VL: QSVLTQPPSVSGAPRQRVTISCSGSRSNIGDNAVNWYQHPPGKAPKLLIYYDDLLPSGVSDRFSGSKSGTSASLAISGLQSEDEADYYCATWDDSLNGHVFGTGTKLTVLG
notes: as for B5
B7: CPA.12.005 Fab (A06 S397-01.H07) (Fab, V domains shown)
VH: QVQLVESGGGVVQPGRSLRVSCAVSGFTFSSYGMHWVRQAPGGGLEWVAVMSYEGSFRHYADSVKGRFTISRDNSKNTLFLQMDSLRAEDTAVYYCARDRPAGYTSGWGILDYWGQGTLVTVSS
VL: EIVMTQSPATLSLSPGERATLSCRASQSVSSYLAWYQQKPGQAPRLLIYDASNRATGIPARFSGSGSGTDFTLTISSLEPEDFAVYYCQQRSNWPLTFGGGTKVDIKR
notes: as for B5
B8: CPA.12.002 Fab (A02 S397-01.A08) (Fab, V domains shown)
VH: B1 VH
VL: B1 VL
notes: as for B5
B9: CPA.12.011 Fab (B03 S400-01.E01) (Fab, V domains shown)
VH: EVQLVESGGGLVQPGGTLRLSCVVSGFTFSSYAMSWVRQAPGKGLEWVSGISGSGGSTYISSGRTYRSTYYADSVKGRFTIARDNSENTLFLQLNSLRAEDTAIYYCAKVNSGEYAHTFDYWGQGTLVTVSS
VL: DIQMTQSPSSLSASVGDRVTITCRASQGISNYLVWYQQKPGKAPKSLIYAASSLQSGVPSRFSGSGSGTDFTLTISSLQPEDFATYYCQQYNYYPITFGQGTRLEIKR
notes: as for B5
B10: CPA.12.001 Fab (A01 S397-01.A04) (Fab, V domains shown)
VH: B2 VH
VL: B2 VL
notes: as for B5
B11: CPA.12.003 Fab (A03 S397-01.A12) (Fab, V domains shown)
VH: B3 VH
VL: B3 VL
notes: as for B5
B12: CPA.12.004 Fab (A04 S397-01.D06) (Fab, V domains shown)
VH: B4 VH
VL: B4 VL
notes: as for B5
B13: CPA.12.007 Fab (A08 S398-01.E08) (Fab, V domains shown)
VH: EVQLVESGGGVVQPGESLRLSCAASGFTFSSYGFHWVRQSPGEGLEWLAVISYDGTSKSYADSVKGRFTVSRDNSKETLYLQLSSLRREDTALYYCARDTWGYYYGMDVWGQGTTVTVSS
VL: DIQMTQSPSFLSGSVGDRVSISCRASQDIRSHLAWYQRKPGEAPKLLIYTASSLQGGVPLRFSGSGSGTEFTLTISSLQPEDSATYYCQHLHLYPLTFGGGTKLEIKR
notes: as for B5
B14: CPA.12.009 Fab (A10 S398-02.A04) (Fab, V domains shown)
VH: QMQLVQSGAEVKKPGASVKVSCKASGYTFTTHAFSWVRQAPGLGLEWMGWISTYNGNTKYEQKFQGRVTLTTDSSTNTAYMELRSLRSDDTAVYYCVRDSRAFDVWGQGTMVTVSS
VL: DIQLTQSPSFLSASVGDRVTITCRASQGINSYLAWYQQKPGAAPKLLIYAASTLQSGVPSRFSGSGSGTEFTLTISSLQPEDFATYYCQQLNTYPLIFGQGTRLEIKR
notes: as for B5

Biological target: T1, mouse HIDE1
Experiment: FACS on 293T-moHIDE1 cells, human IgG4
Procedure: (§1) FACS screening of reformatted IgG4 antibodies: The cell lines described in paragraph [001066] (“FACS screening of PPE”) were mixed with FACS buffer containing the purified anti-HIDE1 IgGs or isotype controls. […] Cells were washed again and fluorescence was detected using an Intellicyt HTFC screening system (Intellicyt). Data were analyzed using FCS Express (DeNovo) and plotted for affinity calculations (KD) in GraphPad Prism (GraphPad Software, Inc.). Note that each anti-HIDE1 antibody was tested over a titration range from 0-80 μg/mL.
(§2) Overview of FACS binding results for human IgG4 antibodies reformatted from Fab screening hits. […] IgGs from the same H-CDR3 family are indicated by the same color, either blue or green. CPA.12.003 & CPA.12.008 have identical heavy chain CDR-3 regions and minor differences in framework regions or other CDRs. The same holds for CPA.12.004 & CPA.12.013. N.B. not binding.

Row | Binder | binding result
1 | B1 | no binding (tested: titration 0-80 µg/mL)
2 | B2 | no binding (tested: titration 0-80 µg/mL)
3 | B3 | no binding (tested: titration 0-80 µg/mL)
4 | B4 | no binding (tested: titration 0-80 µg/mL)

Biological target: T3, HIDE1_HH-1 (Human ECD + human IgG1 Fc mutated C220S at hinge), without SP (human)
T3 construct: Batch #280 in the Serotec and phage display work; also called HIDE1 hECD-hIg; HIDE1 (H:H) recombinant Fc fusion protein
T3 sequence (chain, as listed by the source C220S C220S limits assumed): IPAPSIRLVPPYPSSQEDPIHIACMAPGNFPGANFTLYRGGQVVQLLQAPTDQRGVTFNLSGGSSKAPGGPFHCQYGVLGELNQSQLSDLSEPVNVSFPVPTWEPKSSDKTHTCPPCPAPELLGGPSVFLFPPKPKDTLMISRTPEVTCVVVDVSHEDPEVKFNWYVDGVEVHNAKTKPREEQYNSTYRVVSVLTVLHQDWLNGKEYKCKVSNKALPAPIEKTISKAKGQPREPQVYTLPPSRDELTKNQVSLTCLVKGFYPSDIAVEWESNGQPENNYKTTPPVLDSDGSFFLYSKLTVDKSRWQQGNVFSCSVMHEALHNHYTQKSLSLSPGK
Experiment: SPR (ProteOn), Fab PPE over captured HIDE1-HH-1, 1:1 fit
Procedure: Preliminary Fab binding kinetics were determined using Fab PPEs produced as described in paragraph [001064] (“Fab PPE production”)[001064]. Studies were conducted using Biacore 3000 and ProteOn XPR 36 instruments at 22° C.
A high density goat anti-human Fc antibody (Invitrogen) was immobilized by standard amine coupling over all lanes of a GLC chip using a ProteOn XPR 36 biosensor (Biorad). This surface was used to capture the recombinant HIDE1-H:H fusion protein (GenScript Lot 393383-21, batch #280) or a control Fc fusion protein (CD155, Sino Biologicals) in the vertical flow-cell direction at a concentration of ˜0.5 μg/mL for 90 seconds.

Row | Kd [nM] | koff [s⁻¹] | kon [M⁻¹ s⁻¹] | Binder
5 | 3.9 | 0.00027 | 68000 | B5
6 | 37 | 0.0037 | 99000 | B6
7 | 2.3 | 0.001 | 440000 | B7
8 | 8 | 0.00083 | 100000 | B8
9 | 0.64 | 0.00019 | 290000 | B9
10 | 1.2 | 0.00081 | 670000 | B10
11 | 0.91 | 0.00022 | 250000 | B11
12 | 2.1 | 0.0033 | 1.6e+06 | B12
13 | 1.6 | 0.00034 | 210000 | B13
14 | 1 | 0.0014 | 1.4e+06 | B14

Biological target: T2, human HIDE1
Experiment: FACS titration on 293T-huHIDE1 cells, human IgG4 (preliminary FACS KD)
Procedure: as §1, §2

Row | Kd [nM] | Binder
15 | 6.4 | B1
16 | 61 | B2
17 | 18 | B3
18 | 1.4 | B4
